According to the supplement of paper PMC10126150:
± gives the standard deviation of the averaged measurements.

What follows are sequences tested on ATP (assay: switch fluorescence ratio, 500 uM ATP over buffer (Cy3 cluster intensity, sum of 5 cycles each) (fold (ratio)); higher = stronger signal-on switching upon ATP binding; sequences stand for … in TCGTCGGCAGCGTCAGATGTGTATAAGAGACAGTTTTTTTTTTTTTTTTTTTTTTTTT…TC). Conditions: aptamer strand: ATP DNA aptamer (quencher-CACCTGGGGGAGTATTGCGGAGGAAGG + anchor), 100 nM annealed; ATP concentration: 500 uM.
In short: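 Exposure to 500 uM ATP lasted 15 min at 22 °C before imaging, and a selection-buffer image was taken beforehand, for Cy3-labelled switching-strand clusters on a modified Illumina MiSeq flow-cell annealed to 100 nM quencher-labelled ATP aptamer. Five buffer/ATP cycles were run with NaOH stripping and re-annealing between them. The fluorescence ratio per cluster is summed target-cycle over summed buffer-cycle Cy3 intensity, averaged per switch-domain sequence. Clusters outside 100-1000 RFU were excluded.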

Row | Sequence | switch fluorescence ratio
1 | TCAGGGGCAG | 1.06 ± 0.081
2 | CGGGGGGGG | 1 ± 0.059
3 | GCAGTACGGC | 1.05 ± 0.033
4 | GGATTTGTTA | 0.983 ± 0.039
5 | ACGGAAAAAG | 1.01 ± 0.026
6 | GGGTGAGCTG | 0.98 ± 0.04
7 | TCAGGGTCCG | 0.961 ± 0.017
8 | GATTATAAGA | 0.989 ± 0.033
9 | TTAAGGACTC | 1.1 ± 0.042
10 | TAATGAGCTT | 0.995 ± 0.013
11 | CGGACCTAGT | 0.9689 ± 0.0042
12 | TTTTAGATGA | 0.966 ± 0.027
13 | TTCAGGGATG | 0.9822 ± 0.0028
14 | CCGGAGGGGG | 1.05 ± 0.02
15 | GGCCTTATCG | 0.991 ± 0.048
16 | GGTACATGGG | 0.975 ± 0.021
17 | AACAAATGGG | 1.02 ± 0.052
18 | AGAGATGGTT | 0.979 ± 0.012
19 | CGGGGGGTGC | 1.01 ± 0.082
20 | AATGGGGGG | 0.986 ± 0.039
21 | AAGGCTTAGC | 1.03 ± 0.039
22 | GGGTTTTATC | 0.999 ± 0.035
23 | TGCTTTATCT | 1.012 ± 0.0023

Row | Sequence | switch fluorescence ratio
24 | TGCGGGGAGA | 1.02 ± 0.024
25 | GGGGTTAACT | 0.975 ± 0.022
26 | ACGGGACGGA | 1.034 ± 0.0065
27 | ATTAAAGCGT | 1 ± 0.016
28 | GCTGTACGCT | 0.9539 ± 0.0027
29 | GAGGAGACGT | 1.03 ± 0.019
30 | GGTCTAAGTA | 1.08 ± 0.084
31 | TTGGATAGGG | 1.04 ± 0.067
32 | ACCGGAGCGG | 1.61 ± 0.042
33 | GGGTCACTGG | 0.9765 ± 0.0056
34 | CGAGTGGGGG | 0.987 ± 0.029
35 | ATTTCTTTTT | 1.03 ± 0.0055
36 | CTCTTTAGCG | 1.01 ± 0.025
37 | AGTGATGAAG | 0.996 ± 0.037
38 | GAAAAAATGG | 1.15 ± 0.26
39 | ATCGAGTGCT | 0.952 ± 0.016
40 | ATTCGATATC | 1.03 ± 0.012
41 | TTCATTTATT | 0.9904 ± 0.0055
42 | TGTGAAAAAG | 0.976 ± 0.053
43 | TTTTGAGTGA | 0.954 ± 0.041
44 | TTGTGGACTT | 0.9995 ± 0.0093
45 | CAAGCGACGG | 1.03 ± 0.022
46 | CTGAGTTTGA | 1 ± 0.013

Row | Sequence | switch fluorescence ratio
47 | TGGAAAACCG | 1.08 ± 0.022
48 | GGAGGGATGG | 1.13 ± 0.2
49 | GGGGGCCTTA | 1.01 ± 0.047
50 | GTGTAAGGTT | 0.9935 ± 0.0066
51 | TGGTAGAGAG | 0.9883 ± 0.0075
52 | GGGTTGACGC | 1.01 ± 0.013
53 | CATAGGAAGG | 0.987 ± 0.013
54 | AACAGTTCTG | 0.986 ± 0.027
55 | CATAATTGCT | 1.01 ± 0.0059
56 | GAAAACGAAT | 1.07 ± 0.14
57 | TCAGAGGGTT | 1.01 ± 0.031
58 | TCGTGAGGGG | 1.02 ± 0.047
59 | TCATTAGAAA | 1 ± 0.013
60 | AAAGATATCT | 0.979 ± 0.022
61 | GCGTGTCTAT | 0.991 ± 0.019
62 | GTCAGCTTGC | 1 ± 0.025
63 | TTGGGGTGTG | 1.01 ± 0.017
64 | GAATGAGTCT | 1.01 ± 0.091
65 | TCTACGGGGT | 1.46 ± 0.55
66 | TGTATACTTT | 1.018 ± 0.0081
67 | TACTAAGAAT | 2.35 ± 1.9
68 | CGTGGCCTGT | 0.994 ± 0.029
69 | AAAAGTAACC | 0.993 ± 0.026

Row | Sequence | switch fluorescence ratio
70 | GGAATCTGTT | 0.993 ± 0.068
71 | TCCCACTGCT | 1.03 ± 0.034
72 | AGAAGCGGTT | 1.02 ± 0.025
73 | AATAGGTTTT | 1.02 ± 0.011
74 | TTCAGGTTGG | 1.08 ± 0.082
75 | GGGTTCCTAG | 1.01 ± 0.041
76 | GGAAAGATGT | 1.01 ± 0.027
77 | GCTATTTAGG | 1 ± 0.024
78 | GTTACATGCG | 0.976 ± 0.02
79 | AGCGATAGTC | 1.56 ± 0.024
80 | CGGACGGCTC | 1.093 ± 0.01
81 | CTGTTGGGCC | 0.9949 ± 0.0047
82 | GCTGGTTGAC | 0.981 ± 0.017
83 | CTTGGGGGTC | 0.989 ± 0.014
84 | GGCCCAGGAT | 1.07 ± 0.094
85 | CTAGGATCGG | 0.993 ± 0.057
86 | GAGTGGAATA | 1.002 ± 0.0083
87 | AATTCTGGTT | 0.9664 ± 0.0018
88 | TTCCAAAATG | 1.005 ± 0.0081
89 | AAAGTTAAGT | 0.976 ± 0.0036
90 | TTTTCGAGAG | 1 ± 0.026
91 | TAAGGATTAT | 1.008 ± 0.0024
92 | GGCATTATAT | 0.9984 ± 0.0058

Row | Sequence | switch fluorescence ratio
93 | GACTAACGCA | 1.25 ± 0.057
94 | AGGAAAGAAT | 0.968 ± 0.056
95 | TATGATGGTG | 1.04 ± 0.035
96 | CAGGAACTTT | 0.995 ± 0.0012
97 | TAAAGGTATG | 1.02 ± 0.013
98 | TTTTTAAAAG | 0.988 ± 0.011
99 | TCCGGCGGTG | 1.03 ± 0.027
100 | AATGGATGGG | 0.999 ± 0.011
101 | TAGTTGGTGG | 0.954 ± 0.046
102 | TTAAATAAGT | 1 ± 0.025
103 | TGGCGGTACG | 1.02 ± 0.069
104 | GGGGGTCACT | 0.993 ± 0.026
105 | GCTCGCCGAT | 1.01 ± 0.016
106 | TTAAAACCGT | 1.02 ± 0.029
107 | CTTTACGTCG | 0.982 ± 0.016
108 | ATCTGCTTGA | 0.974 ± 0.042
109 | TGGCCAGCTC | 0.975 ± 0.016
110 | TAGTCGAGAT | 0.989 ± 0.029
111 | CGTGGGGGTT | 0.973 ± 0.038
112 | CAGTTGTGGG | 0.9802 ± 0.0066
113 | ATGGACGTTT | 0.967 ± 0.048
114 | TTATCCGGAT | 0.933 ± 0.11
115 | GAAGGCCCGG | 0.99 ± 0.062

Row | Sequence | switch fluorescence ratio
116 | GTCGATTGGG | 1.001 ± 0.0012
117 | CGGAGACGTG | 1 ± 0.025
118 | GCAAAAATGT | 1 ± 0.029
119 | CGGTTTACGT | 0.997 ± 0.018
120 | CAGGAGTGAG | 1.0068 ± 0.00044
121 | CCTGGCTTTT | 1.047 ± 0.007
122 | CCGGGAAATT | 1.22 ± 0.36
123 | TTAGCAGCTG | 1 ± 0.04
124 | CTAACGGAAT | 1.7 ± 0.34
125 | GTGTCAGGGG | 1.04 ± 0.07
126 | AAATTTTTAG | 1.02 ± 0.018
127 | AGGGGGGGGA | 1.01 ± 0.05
128 | TCTGAGCAAG | 2.47 ± 0.25
129 | TACAAGCTAA | 0.978 ± 0.032
130 | AGTTGTGGGG | 0.995 ± 0.032
131 | GATTATCGTT | 1.03 ± 0.027
132 | CACTAATGGT | 1.073 ± 0.0072
133 | ATAGTCAATT | 0.993 ± 0.071
134 | TTTTTTTTAC | 1.04 ± 0.029
135 | GAGTTTATAT | 1.01 ± 0.017
136 | CGGAAAGTGT | 0.996 ± 0.024
137 | AGATAACAGG | 1.01 ± 0.034
138 | CGAAATCGGG | 1.02 ± 0.018

Row | Sequence | switch fluorescence ratio
139 | ACGAAATGAC | 1.68 ± 0.037
140 | ATATCAGCAT | 1.065 ± 0.005
141 | TAGGTGTTTT | 1.05 ± 0.047
142 | GCTGTAAGAA | 1.01 ± 0.037
143 | TAAAGCTTTT | 1.09 ± 0.16
144 | TTTCCTTTGG | 1.01 ± 0.032
145 | GGCTTAGGGG | 0.979 ± 0.022
146 | ATGGGTGTTG | 0.992 ± 0.022
147 | TAGGGTTCTT | 1.03 ± 0.029
148 | TAAGGGGCAA | 1.01 ± 0.018
149 | AGATGGATTT | 0.963 ± 0.0091
150 | TTTGGTTTCA | 0.994 ± 0.013
151 | TACAAACGGT | 1.17 ± 0.25
152 | GGGATTCGCA | 0.99 ± 0.053
153 | ACTGAATTTG | 1.02 ± 0.053
154 | ACGTAATTGG | 1.21 ± 0.01
155 | TTGTGGAAAC | 1.02 ± 0.012
156 | TGAGCGGGTA | 1.024 ± 0.0052
157 | GCGGGCACCA | 0.995 ± 0.024
